This is an account of results in patent US20190219601A1 (RAMBAM MED TECH, published 2019).

Series [1] has as its target lipidated recombinant human tissue factor (TF) (UniProt P13726). Briefly: cell-based or functional assay.
Target sequence in this assay (P13726 33-295 limits assumed): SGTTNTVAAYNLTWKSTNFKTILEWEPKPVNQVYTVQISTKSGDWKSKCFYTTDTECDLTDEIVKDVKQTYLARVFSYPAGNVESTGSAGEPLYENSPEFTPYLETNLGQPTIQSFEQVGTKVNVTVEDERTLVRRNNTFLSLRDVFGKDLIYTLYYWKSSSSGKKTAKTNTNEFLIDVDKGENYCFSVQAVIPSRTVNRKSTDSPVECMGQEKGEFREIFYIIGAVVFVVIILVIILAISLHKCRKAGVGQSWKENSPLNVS
The target is the same in series [2].
Target sequence in this assay (P13726 33-295): as the sequence (P13726 33-295 limits assumed) above
Series [3] addresses lipidated recombinant human tissue factor (TF) (human, UniProt P13726 33-295, limits assumed). Description: cell-based or functional assay.

Consider “enzymatically inactive heparanase (double mutant), mutated at Glu225 and Glu343 (from UniProt Q9Y251 36-543) (enzyme)”, for which the factor Xa generation with conditioned medium of HEK-293 cells (chromogenic substrate; TF, factor VIIa, factor X) in series [1] was found to be 2 fold. The same measure, in the same setting: under “full-length human heparanase (65 kDa) (from UniProt Q9Y251 36-543) (enzyme)” stands 2 fold. For the molecule “recombinant active heparanase GS3 (single chain GS3 active heparanase gene construct comprising the 8 and 50 kDa heparanase subunits)”, in series [2], the “factor Xa level (chromogenic substrate; purified TF, factor VIIa, factor X)” value is listed as “Addition of heparanase induced 2 folds increase in Xa level” and the “thrombin generation (chromogenic substrate; TF, factor VIIa, factor X, prothrombin)” value was “Note a 3-fold increase in coagulation activity in the presence of heparanase”.

B1: recombinant active heparanase GS3 (single chain GS3 active heparanase gene construct comprising the 8 and 50 kDa heparanase subunits) (enzyme)
chain: QDVVDLDFFTQEPLHLVSPSFLSVTIDANLATDPRFLILLGSPKLRTLARGLSPAYLRFGGTKTDFLIFDPKKESTFEERSYWQSQVNQDICKYGSIPPDVEEKLRLEWPYQEQLLLREHYQKKFKNSTYSRSSVDVLYTFANCSGLDLIFGLNALLRTADLQWNSSNAQLLLDYCSSKGYNISWELGNEPNSFLKKADIFINGSQLGEDFIQLHKLLRKSTFKNAKLYGPDVGQPRRKTAKMLKSFLKAGGEVIDSVTWHHYYLNGRTATKEDFLNPDVLDIFISSVQKVFQVVESTRPGKKVWLGETSSAYGGGAPLLSDTFAAGFMWLDKLGLSARMGIEVVMRQVFFGAGNYHLVDENFDPLPDYWLSLLFKKLVGTKVLMASVQGSKRRKLRVYLHCTNTDNPRYKEGDLTLYAINLHNVTKYLRLPYPFSNKQVDKYLLRPLGPHGLLSKSVQLNGLTLKMVDDQTLPPLMEKPLRPGSSLGLPAFSYSFFVIRNAKVAACI
Take B1: in series [3], the “factor Xa generation at reduced TF levels (absorbance at 405 nm)” value was found to be 3 fold and the “factor Xa generation with conditioned medium of HEK-293 cells (chromogenic substrate; TF, factor VIIa, factor X)” value came to 2 fold.
